{"source": "the DeepSol protein solubility set"}
{"experiment": "soluble on expression in E. coli; label from the status in PepcDB or PDB records"}
{"sequence": "MPRTIWSGAISFGLVTVPIHVVSATEDHSVRFHQYHLEDMGRVRVRKYCELEDREVTQDEIGKGYELSKDTVIPVLDEELRELPLPTAKAIEIEAFVPLASIDPMGIGEGYYLQPDGQVAAKPYKLLRQALERSSKVAVAKYAWSGRERLGMLRVREEAIVLHAMRWPDEIRD", "soluble on expression in E. coli": "not soluble"}
{"sequence": "MGGPGETQIEADRRLLQDRIVKLEKELEQVVRTRQLHRAKRRKVPHPIVALVGYTNAGKSTLFNRITGAGVLAEDMLFATLDPTLRRMKLPHGRTVILSDTVGFISDLPTHLVAAFRATLEEVLEADLVLHVRDMSDPDNAAQSADVLRILGDLGIDEKEAEKRIIEVWNKVDRLEPEAHDAIMQRAEGRSDIRAVSAITGEGVDALMEEISKRLSGVLTETTVVLSVEQLPLISWVYSNSIVDNREDHEDGSVALDVRLSEAQAVELERKLGKTAGREREDWERAAALEHHHHHH", "soluble on expression in E. coli": "not soluble"}
{"sequence": "MSFDLSWYGVPVEEEAKEEEAIVYGIPNNPELEQIIPAKFHSFVNEVIGDYNTLSDEEFWKKYNLREIWFDVKEYEEDNKAKNMLGTIIVFLLVEKEYILQLDYKEDLVDYIEDIDNYWGKEEVKLISFEVDNDQQYYAYVPKTAAIDSLYEVKLTEVEKIEEV", "soluble on expression in E. coli": "not soluble"}
{"sequence": "MSLEISFTRVALLAAALFFVGCDQKPQPAKTHATEVTVLEGKTMGTFWRASIPGIDAKRSAELKEKIQTQLDADDQLLSTYKKDSALMRFNDSQSLSPWPVSEAMADIVTTSLRIGAKTDGAMDITVGPLVNLWGFGPEQQPVQIPSQEQIDAMKAKTGLQHLTVINQSHQQYLQKDLPDLYVDLSTVGEGYAADHLARLMEQEGISRYLVSVGGALNSRGMNGEGLPWRVAIQKPTDKENAVQAVVDINGHGISTSGSYRNYYELDGKRLSHVIDPQTGRPIEHNLVSVTVIAPTALEADAWDTGLMVLGPEKAKEVVRREGLAVYMITKEGDSFKTWMSPQFKSFLVSEKEGGSHHHHHH", "soluble on expression in E. coli": "soluble"}
{"sequence": "MAENFVVVDGGVVAPKGFKANGHKDRKYGAALIYSEADAVAAGVFTTNKVYAHPVALSKDTLVNNNVFRAIVANSGNANCFTKGGMEDAELLVKKAAELLKIPENQVLSASTGVIGRKMPMDIISLEVERAFENITMESSNENASKAIMTTDAFPKTVAVEFEVNGKSVRIGGIAKGAGMIAPNMLHATMLGFITTDIEISKEDLTNSLQKATDESFNNAVVDGDMSTNDTVYVLANAQSGVKYTDCKEEFDHALTYVSKELAKMIVSDGEGAKKLIEATVFGAETKEDAKKASMSIVRSLLLKTAVFGADPNWGRIAAAVGYSGAEMDMNNFDIIISDISSEKQAILVKAGEQIADCGTPELKLAEEIMKEDKIKIIVDLKMGSFENTAFGCDLGYDYVKINSEYTTLEHHHHHH", "soluble on expression in E. coli": "not soluble"}
{"sequence": "MIVGRDGVGVVEHAEQGPRIAVAVVTMGNRPAEVDALLASVAKQDLPPARIVIVGNGCPLPEFARRLDLPGEVTGIEVDENLGCPGGRNVALAKLREFGDVDVVVELDDDGLLVDADVLRRVRDLYAADPRLGIVGFRIADENGETQRRHVPRVGKSDPLRGGPVTGFLGGGHALSMAMLARTGDWPAEFFFAHEETDLAWRATDAGWTILYAPELLLQHPKTSPARHAIYHRVTARNRVWLARRRLPLPLIPVHLGIWIAVTLVRTRSAGGLRAWFGGFMEGVRTSGGERRPMRWRTVWRLTRLGRPPVILEHHHHHH", "soluble on expression in E. coli": "not soluble"}
{"sequence": "LYGYYCMQEEEQLVYWYSGLYLQPQHFQSIDLHHGFMLARSRQLSQPHHQGYYECCINDDLLKEDTVRVEKIKAVLSSGYYIEYPGNCVVQDKCLTNLKGSDHGTVDLWLALKRFNSGHKNVSSVNDKRGSARWISSDDERNMRNVYHDSQDADITRIKYDIQILTDEEKDNTTDYEYLPLTRIIYGNNSLCIDDECSFPVMRLSANHKLRNKIAEIYSDIKFYKNRLEKYRYTERTVSDGHLYNFLILCAINRTLPLLSSFINEDAIHPWLYYMALCQFAGEISTFHNSGLSDTRIVELSYNHYEQISCFSDLQYYIKLILDDSCRDKIISVEFRKITTDTLICNFDEYGAGSNSDYYIKLTSDTFRKNKLIALPEIKIAPSEHIDMIIQHALPGIKFTVMDAVTSDLQVRENTIWLKIDKHSELWTLAQTQKRVAFYWSCSPDDLLVELVLSQEKYAVSRPKQDNGSFHPAVGR", "soluble on expression in E. coli": "not soluble"}
{"sequence": "MSHLNYETRLPLGQATIDHFMGLPAHPTKCQATYVWIDGTGEHLRAKTRTINTKPQYLSEYPIWNYDGSSTGQADGLNSDRYLRPVAVFPDPFLGGLNVLVMCDTLDHEMKPTATNHRQMCAELMKKVSDQQPWFGMEQEYLIVDRDEHPLGWPKHGYPAPQGKYYCGIGADRAFGREVVETHYRACLHAGITIFGSNAEVTPGQWEFQIGTCLGIEMGDQLWMARYILHRVAEQFGVCVSLDPKPRVTMGDWNGAGCHTNFSTIDMRRPDGLETIIAAMEGLKKTHSEAMKVYDPNGGHDNLRRLTGRHETSQADQFSWGIANRACSVRIPRQVADEGRGYLEDRRPSSNCDPYLVTAMIVKSVLIN", "soluble on expression in E. coli": "not soluble"}
{"sequence": "AMACWAQSQGYNCCNNPSSTKVEYTDASGQWGVQNGQWCGIDYSYGQNQGNESCTGNGSYPCCNTCQATYTDGDGDWAFENGNWCGIKNSCKQQPQNNNQ", "soluble on expression in E. coli": "soluble"}
{"sequence": "MAHHHHHHMLESFEFDQERKEALNTVAELIASTIEGAESQDVHDVLSSSLHLPHNWQEIVQKRAEQRRKLSATFTLFCEETIATPSTDGNAALDISEAPATCFLPELRPKTMPPVTTSATRGFECPSCGNHWDVVDARKSLRNSNTSSAVRELSNADVGFCPVCEDI", "soluble on expression in E. coli": "not soluble"}
{"sequence": "GPGSMSKGAVVLVLDITLPRAAALVEACNLCDRILTDKMIYAPSDEVSVILAGTEKSRSALYEQSVQARYNHITVAAELGPATSLTLAPIAATRAGVAVLPEGETVRPSIAEAYDFIDALQVAVAVLQARTSQKKYNRCIYFLTDARHEVRHKEDLLSLIDILQRDQVALVVIGFDFQALPAPADSQGEFNESTTVVPSAWAALDRKAQNERILAALCTELGPPSTLVSPAEALASLSLLRCRRIRQQPVLKVALRMGDVRLATQLFTLTQEERLPSLRRSTQDGVDVAQTIEYVVLGGVEERPCALAKEERVEAFFLGVDRISCSEADREAMRVKGPRALEAIGFVGEAEVEPYLLMGGTRALLPLAGDHAGQRGFNALVDAMASSRKAMLVRLVRTADAAPSLCVCFARTAGSSAAQRHLVLAPLPFAEDVRALRFSEYPELQFSAAEEQLMDELIDGLSVDDSVLAPHDTFNPVLQQYYATLRAKLSAMNVSAEKGNTKATSPEAAVPQLLPTLRGTSTDFFAEGSEVYEVVSAHRSALVSCATAFPYEDEADALLSGSRDAGRKGKPWYQDVAMTPSLIGPQAGSPPPAAQGSDGAPSTIAPAIAGGARCGGEADEASAGSHTASDANSISTVPHDTISGGVSFAITSVDPVGSFSMIVHHPAVTEAQLNKAKDDLSDVIWELLRSSIKDAIYRKCMACIMALRQFCVTQDDAAYYNDFLLKLEVVARQCSRDADFWVPYVVERKDGANVWPITAQECKSAALPDDTAAKAFLQKDRFDPAIAFDDTADDDDWLAEIQ", "soluble on expression in E. coli": "not soluble"}
{"sequence": "MGSDKIHHHHHHMIFLNRYGFPDQSATSRMISSLAMSMAQRGMNVTVVTSREIHNHPGSVLPATETVRGIHIQRLSSGRFGRHNLMRRSIDYLLFQVLAFAWLLRNVRATDTVIVCTDPPLLSVMSSIAIRLKGALMVNWIMDLFPETAIELGFFRKRARWLAPWLTRARNWSLRSPGMVVCPTEKMAEFLFTQGIAKDRVSVLHHWSDGEEIYPVLPEGNSLRKAWGLQDVFVVGYSGNFGRAHDFGTMLAAAKRLEHRPDIRFLLIGGGHQHAAVKTVVQDLGLQNVIFKPLQPVENLAESLSVADVHLVSLLPELEHCIIPSKFYGIMAAGRPTIFIGDPDGEVPRILRAKRCGSNVEIGETDKLTGIIEELCDDPDTTKAMGDAARRLLCTDYSREKAADAWAALIAGLQTVEPSRPHLAQGISP", "soluble on expression in E. coli": "not soluble"}
{"sequence": "SLERSVNGKIQKADIFSVPVSFNANEVTHVDTPQEALAASLNKFGEVNLEYMENLSETGRQELLTQLENRIFYNPMMKNYEIKDRFIAGNVVAKVEWIENYLKDYPDDDASKKSLEALQKAIPEPISFELLDFNLGERWIPVSVYEEFAGYLFEAKAHIHYTESIDEFSVSFEETNANITDRYYVKGEKRGYYGNDLLKHALHNTVPDITKTVQDEEGNDIKVRDAEAIQLADAKINEIRSAFTGWLNEQLPEFKQHLADMYNRKFNCYVRPDYDGSLQSFPFLDLKGLGIPSLYDSQ", "soluble on expression in E. coli": "not soluble"}
{"sequence": "MSQEDLELFQQMMGDVKTITHDTVELKKAHQVTEAQLAKREAAVSLADHDPEALSIDHAPMLKPDDMLEFKRDGVQDGVYRKLRLGKYPIQARLDLHRKTLKEARSEVIQFIRQCMAMDIRTLLIVHGRGERSTPPALMKSFVSHWLTQISEVQCAHSAQRLHGGTGAVYVLLRKSAEKKAENRERHQKRLG", "soluble on expression in E. coli": "not soluble"}
{"sequence": "MGSDKIHHHHHHMRKLLVIGLDSVPPLLIEKFRDLIPNLQSLLNVKGKLLSGHPPITVPMWGVMLAGRSAGELGVYGFRHRRPGDVGTSYVVTSRSIAEGWVWDDLGLRLGLRSLVIGVPPGYPARRVRGWFVSCFLTPGVDGAFAWPPGLKREILKASGGDYVFDVKYRVEDKESVRKSLWRLAKTQFKVVKYLLSSKPWDFAMYMHIGTDRVHHAFWKYWDPEHPRYPGEGNPYENVLPEYYSLVDKHIGQLLESLPGDTDVIVVSDHGAKAMKGAFAINQWLEEEGYLSLKEEPKRPGADLEASMIDWDRTMAWAWGGYYSRVYINLKGREPRGIVGREEYWSVVEQLKRDIEKIRGPNGERWENKAYHPSELYPEVRGDAPDLMVYLDNLSWRPAGTIGWPSTYLEENDRGPDDAVHDWHGIIGGNADVLKEAVKDSTVPIQRVKEIILAHYGLESHMKDRGRGAV", "soluble on expression in E. coli": "not soluble"}
{"sequence": "MELQLAIDLLNKEEAAKLAQKVEEYVDIVEIGTPIVINEGLPAVQHLNENINNAKVLADLKIMDAADYEVSQAVKYGADIVTILGVAEDASIKAAVEEAHKHGKALLVDMIAVQNLEQRAKELDEMGADYIAVHTGYDLQAEGKSPLDSLRTVKSVIKNSKVAVAGGIKPDTIKDIVAEDPDLVIVGGGIANADDPVEAAKQCRVAIEG", "soluble on expression in E. coli": "not soluble"}
{"sequence": "MLRFFIQPQLNTIVDSVIGYEMLIKEYRDGTWRMPASFSAIPAHDMAELLIATAKELSLKVGSVSFNVDRNQILDDQLIHALIAAQTVLRPVKLIIELIENDVKPSVSDEQLIEVVTQLNDFGIQFCLDDVGSGINTWPAVKPLLPYTRELKYALQNYKEHLNESAAENHVTFWQNLATKHQMRFILEGIEDDNDDAWADSMNIDLRQGYYYGRP", "soluble on expression in E. coli": "not soluble"}
{"sequence": "MADTLGKSELEVIKPQKREIRKGQVRKHIITVKVRNEMGVLARIATLIAGKGYNIEGLSVGETHEKGISRMTIEVIGDDIVIEQVVKQLRRLIDTLKVSDLTDVPHVERELALIKVYTPSSRARDEVLRITEIFRGKVVDVSPDTYTIEVTGDEDKINAMIELLKPFGIKEMARTGKVAMRREMSIKEEENELEHHHHHH", "soluble on expression in E. coli": "not soluble"}
{"sequence": "MGSDKIHHHHHHMNAPAHDNGRLALMLNELRLPTIGRLWPEFAERSDKEGWPATRLLGALLEHELAERAKRRIERHRTESHLDPTKTLATFDFGMVPMVSKAHVTALATGESWLEKGATILLFGPPGAGKSHLGSAIGHALIDAGYRVLFTRTSELVQKLQAARQSLQLPSALAKLDRFDLIILDDLSYARKDQAETSVLFELIAERYERKSLLITANQPFSGWNDVFPDPGMTVAAIDRLVHHSTIFELNVESYRRRKASDKQSARRRQLPDDNYEGGATIMN", "soluble on expression in E. coli": "not soluble"}
{"sequence": "MSLAPINPYPLLQACQRQRVSDGAIAPVLAGTESSDRLLVLIWPQLGDFDSLEYAQWLQREQDQIQQLGLTIRAVGIGDRDSGQRFCEFTGFPADQLFVDPTASLHQELELYPGLQLSIPGFSPAAKAWLNLLLMCAGIGSPGTLAEVLRGYRGDRSAPQLIAAEETVQAAPLPPIKGNFFNLAGGSGFQRPMELATLRLRNMAESLGHWRTYVPDTSYMTQRGGTFLFDRDRQLIYEHRDHGILGFSATMNRPLSFLDNLPTPSTASEGHHHHHH", "soluble on expression in E. coli": "soluble"}
